Laboratory results taken from PMC11387697, “Defining the functional properties of cyclopropane fatty acid synthase from Pseudomonas aeruginosa PAO1” (The Journal of Biological Chemistry, 2024).

B1: EC-CFAS (Escherichia coli K-12) (protein)
chain: SSSCIEEVSVPDDNWYRIANELLSRAGIAINGSAPADIRVKNPDFFKRVLQEGSLGLGESYMDGWWECDRLDMFFSKVLRAGLENQLPHHFKDTLRIAGARLFNLQSKKRAWIVGKEHYDLGNDLFSRMLDPFMQYSCAYWKDADNLESAQQAKLKMICEKLQLKPGMRVLDIGCGWGGLAHYMASNYDVSVVGVTISAEQQKMAQERCEGLDVTILLQDYRDLNDQFDRIVSVGMFEHVGPKNYDTYFAVVDRNLKPEGIFLLHTIGSKKTDLNVDPWINKYIFPNGCLPSVRQIAQSSEPHFVMEDWHNFGADYDTTLMAWYERFLAAWPEIADNYSERFKRMFTYYLNACAGAFRARDIQLWQVVFSRGVENGLRVAR
B2: Pseudomonas aeruginosa PAO1 cyclopropane fatty acid synthase (PA-CFAS) (enzyme, UniProt Q9HT28 1-394, looked up)
chain: MIAQLPSELLSLQLPLRIRIGDAQAFDLGPDPQVTMVIRDPSLLTEITHPSLDALGKAYVEKRLDIEGPISQVIGIGDALSEALGEPDGGAPPVRESHDKDTDAEAIHYHYDLSNDFYQLWLDPEMVYSCAYFETGKEDLATAQLAKLRHLCRKLRLQPGEKLLDVGCGWGGLARLAAREFGVEVTGITLSKEQLALGRERVKAEGLEDRVTLKLLDYRDLPRDGRFDKVVSVGMFEHVGHANLGLYFQQLYEAVRPGGLVMNHGITSRYTDGRPVGKGAGDFIDRYVFPHGELPHLSLAVARMSEAGLEVVDVESLRLHYARTLDFWSANLEARLKEAARLVPEETLRIWRLYLAGCAYGFKRGWINLHQILAIRPHEDGSHELPWSRRDLYA
notes: Cyclopropane fatty acid synthase, gene PA5546, P. aeruginosa PAO1, amplified from the PAO1 genome and cloned into pET16b; monomer with His6 tag MWcalc = MWobs = 46,486 Da; The native-MS dimer mass (92,972 Da) is twice the tagged monomer mass, so the tag was present in the assay; also called PA5546; Pseudomonas CFAS enzyme

Key:
[1] = substrate: C[S+](CC[C@H](N)C(=O)O)C[C@H]1O[C@@H](n2cnc3c(N)ncnc32)[C@H](O)[C@@H]1O; test: purified protein; details: 60:40 PE 18:1/18:1:DPPG 100 nm unilamellar liposomes 1 mg/ml, HEPES pH 7.5, 37 °C
[2] = molecular target: the molecule itself; test: native MS; native ion mobility MS; 5 uM enzyme buffer exchanged into 200 mM ammonium acetate, pH 7.5; nanoESI under gentle conditions (Waters Synapt G2-Si); collision-induced unfolding of the 20+ dimer ion at 4 to 110 V

| Protein | Km [1] [µM] | kcat [1] [s⁻¹] | stoichiometry N [2] |
| --- | --- | --- | --- |
| B1 | 68 | 0.217 | – |
| B2 | – | – | 2 |
